The results in this text go back to the nanobody polyreactivity screen of Harvey et al. (2022).

This data set can be described thus: yeast display, Sf9 membrane polyspecificity reagent, FACS + sequencing; frameworks hold sequencing errors. A digest of the protocol:
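After 36–48 hours of galactose induction, yeast (Saccharomyces cerevisiae BJ5465) displaying a synthetic nanobody library were stained at 4 °C for 1 hour with 10% biotinylated, detergent-solubilized Sf9 membrane reagent. Streptavidin microbeads enriched the stained cells before FACS sorting into low and high (top ~1%) gates on anti-HA and streptavidin fluorescence. Each clone's polyreactivity label reflects its gate of origin.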
“QVQLVESGGGIVQAGGSLRLSCDASGRIFTGNVMGWYRQAPGKERELVAAISRRGGGTYYADSVKGRFTISRDNAKNTVYLQMNSLIPEDTALYYCDAQYRSQGQPKGCVLYYYWVQGTQVTVSS”: the “polyreactivity (PSR sort gate)” value was “high polyreactivity”.

Consider “QVQLVESGGGLVQAGGSLRLSCAASGRIIRYYAMGWYRQAPGKERELVATISRSGGSTFYADSVKGRFTISRDNAKNTVYLQMNSLKPEDTAVYYCNARYQTGGYGYWGQGTQVTVSS”, for which the “polyreactivity (PSR sort gate)” value is given as “high polyreactivity”.

Turning to “QVHLVESGGGLVQAGGSLRLSCDASGRTFFPYGMGWYRQAPGKQRELVATISWSGGSTHYADSVKGRFTISRDNAKNTVYLQMNSLKPEDNAVYYCNKTSFLVKLDYWGQVTQVTVSS”, the “polyreactivity (PSR sort gate)” value was “high polyreactivity”.

On to “QVQLVESGGGLVQAGGSLRLSSAASGRIFSDYAMGWYRQAPGKERELVATITSGDSTNYGDSVKGRFTISRDNAKNTVYLQMNSLKTESTEVYYCNAERFPDYDYWGQGTQVTVSS”, for which the “polyreactivity (PSR sort gate)” value is “low polyreactivity”.

Take “QVHLVESGGGLVQAGGSLRLSCAASGRTLGGYAMGWYRQAPGKERELVAVITWNGGSTYADSVKGRFTISRDNAKNTVYLQRNSLKPEDTAVYYCAVYIPRGGRSGYWGQGTQVTVSS”: the “polyreactivity (PSR sort gate)” value is “high polyreactivity”.

In the case of “QVQHVESGGGLVQAGGSLRLSCAASGRTFGSNAMGWYRQAPGKERELVAAISLRGGRTYYADSVKGRFTISRDNAKNTVYLLMNSLKPEDTAVYYCNAVHYLYGARSRLTYDYWGQGTQVTVSS”, the “polyreactivity (PSR sort gate)” value is listed as “high polyreactivity”.

For the sequence “QVQLVESGGGLLQAGGSLRISCAASGFPYVMGWYRQAPGKARELVATITSGDSTNYADSVKGRFTISRDNAKNTVYLQMNSLKPEDTAVYYCNARYWGRYYKRVRYDYWGQGTKVTVSS”, the “polyreactivity (PSR sort gate)” value is reported as “high polyreactivity”.

Regarding “QVQLVESGGGLVQAGGSLRLSCAASGSTFEANAMGRYRQAPGKERELVAVITWTGGSTYYADSVKGRFTISRDNAKNTVYLQMNSLKPEDTAVYYCAADGVVPGRFFWPAHEYDYWGQGTQVTVSS”, the “polyreactivity (PSR sort gate)” value was “low polyreactivity”.

Take “QVQLVESGGGLVQAGGSLRLSCAASGSIFISYAKGWYRQAPGKERELVAAINYSGGSTYYADSVKGRFTISRDNAKNTVYLQMNSLKPEDTAVYYCAKRSTYRYYGYKLRDYWGQVTQVTVSS”: the “polyreactivity (PSR sort gate)” value is on record as “low polyreactivity”.

Consider “QVQLVESGGGLVQAGGSLRLSCAASGSIFRDYTMGWYRQAPGKERELVAAIRQDGGTTTYADSVKGRFTISRDNAKNTVYLQMNSLKPEDTAVYLWGQGTQVTVSS”, for which the “polyreactivity (PSR sort gate)” value is “low polyreactivity”.

For the sequence “QVQLVESGGGLFQAGGRLRLSCAASGITFVYYAMGWSRQAPGKERELVAAISWGGGSTYYADSVKGRFTISSDNAKNTVYLQMNSLKPEDTAVYYCAADAYVNATPEVSAMGYWGQGTQVTVSS”, the “polyreactivity (PSR sort gate)” value was “low polyreactivity”.

Regarding “QVQLVESGGGLVQAGGSLRLSCAASGRTFTGYAMGWYRQAPGKERELVAGISRRGGSTNYADSVKGRFTISRDNSKNTVYLQMNSLKQEDPAVYYCKKRYSLWDEDYWGQGTQVTVSS”, the “polyreactivity (PSR sort gate)” value is “high polyreactivity”.

Turning to “QVQLVESWGGLVQAGGRLRLSCAASGRTFPGYAMGWYRPAPRKERELVAGISYRGGSTYYADSVKGRFTISRDNAKYTDYLQMNSLNPEDTAVYYCARDYSRHKGDYWGQGTQVTVSS”, the “polyreactivity (PSR sort gate)” value is “low polyreactivity”.

As to “QVQLVESGGGLVQAGGSLRLSCAASGRTLYRYAMGWYRQAPGKERELVAAIRSGGRTNYADSVKGRFTISRDNAKNTVYLQMNSLKPEDTAVYYCAARTLRYPSTYDYWGQGTQVTVSS”, the “polyreactivity (PSR sort gate)” value was “high polyreactivity”.

As for “QVQLVESGGGLVQAGGSLRLSCAASGSTFVYYAMGWYRQAPGKERELVAVISDDGGTYYADSVKGRFSISRDNAKNTVYLQMNSLKPEDTAVYYCAKDYYGGAYYWYNDRSGDYWGQGTQVTVSS”, the “polyreactivity (PSR sort gate)” value is on record as “low polyreactivity”.

Regarding “QVQLVESGGGLVQAGGSLRLSCAASGSNFYQYAMGWYRPAPRKERELVAAISVRAGITYYADSVTGRFTISRDNAKYTVYLQMNSLKPEDTAVYYCAKDHWTTSYDEGDYWGQGTQVTVSS”, the “polyreactivity (PSR sort gate)” value is listed as “low polyreactivity”.

In the case of “QVQLVESGGGLVQAGGSLRLSCAACGRIFSYNAMGWYRQAPGKERELVAAIRWRGGSTYYADSVKGRFTISRDNAKNTVYLQMNRLKPEDTAVYYCNALRYYHYDYWGQGTQVTVSS”, the “polyreactivity (PSR sort gate)” value is listed as “high polyreactivity”.

Turning to “QVQLVESGGGLVQAGGSLRLSCDASGFIFWWYAMGWYRQAPGKEREFVAYISWSGARTYYADSVKGRFTISRDNAKNTVYLLMNSLKQEDTAVYYCNADRIGRYYQSYGGGHMDYWGQGTQVNVSS”, the “polyreactivity (PSR sort gate)” value is “high polyreactivity”.

Regarding “QVQLVESGGGLVQAGGSLRLSCAASGGTFTAYAMGWYRQAPGKERELVAAISASGDSTYYADSVKGRFTISRDNAKNTVYLQMNSLKPEDTAVYYCNADWYRTGRRGSDYWGQGTQVTVSS”, the “polyreactivity (PSR sort gate)” value is “low polyreactivity”.

For “QVQLVESGGGLVQAGGSLRLSCAASGRTFVYYAMGWYRQAPGKERELVAAISGSGGSTYYADSVKGRFTISRDNAKNTVYLQMNSLKPEDTAVYYCNVRGPGFYWNWGQSHYYGYDYWGQGTQVTVSS”, the “polyreactivity (PSR sort gate)” value is recorded as “high polyreactivity”.

Take “QVQLVESGGGLVQAGGSLRLSCAASGFTFAPNAMGWYRQAPGKEMELVAAISSASSTYYADSVKGRFTISRDNAKNTVYLQMNSLKPEDTAVYYCAARVFKKYRPSGRYYYWGQGSQVTVSS”: the “polyreactivity (PSR sort gate)” value is “high polyreactivity”.

Consider “QVQLVESGGGLVQAGGSLRLSCAASGRSIAYYAMGWYRQAPGKERELVAAINWSGGRTYYADSVKGRFTLSRDNAKNTVYLQMNSLKPEETAVYYCNAVYNESRGSYQDDYWGQGTQVTVSS”, for which the “polyreactivity (PSR sort gate)” value is listed as “high polyreactivity”.

“QVQSVESAGVLVQAGGSLRLSCAASGFTFTWYAMGWYRKAPGKERELVATISRSGGRTYYADSVKGRFTISRDNAKNTVYLQMNSLKPEDTAVYYCAADTRNSPRYDYWGQGTQVTVSS”: the “polyreactivity (PSR sort gate)” value is on record as “high polyreactivity”.

As for “QVQLVDSGGGLVQAGGSLRLSCADSGFTFSWNVMGRYRQAPGKEREYVAAISTSYGGRYYADSVKGRFTISRDNAKNTVDLQMNSLKPEDTAVYYCNDDIVGFQWGYDYWGQGTQVTVSA”, the “polyreactivity (PSR sort gate)” value is listed as “low polyreactivity”.

Turning to “QVQLVESGGGLVQAGGSLRLSCAASGSTFAYYAMGWYRQAPGKERELVAAISWRGGSTYYADSVKGRFTISRDNAKNTVYLHMNSLKPEDTAVYYCATLSAWKASSYDYWGQGTQVTVSS”, the “polyreactivity (PSR sort gate)” value is given as “high polyreactivity”.

Consider “QVQLVESGGGLVQAGGSLRISCAASGYIFAVYAMGWYRQAPGKEREFVAVITWRGGSTYYADSVKGRFTISRDNAKNTVYLQMNSLKPEDTAVYYCAARWHFLTSSRFDYWGQGTQVTVSS”, for which the “polyreactivity (PSR sort gate)” value is reported as “high polyreactivity”.

With “QVQLVESGGGLVQAGGSLRLSCAATGIIFKRYTMGWYRQAPGKERELVATINSGTRTYADSVKGRFTISRDNAKNTVYLQMNSLKPEDTAVYYCARRGYYYDYWGLGTQVTVSS”, the “polyreactivity (PSR sort gate)” value is reported as “high polyreactivity”.

With “QVQLVESGGGLVQAGGSLRLSCAASGSTFQSYAMGWYTQAPGKERELVAAISARGGTTYYADSVKGRFTISRDNAKNTVYLQMNSLKPEDTAVYYCAAEWDTNFWYDYWGQGTQVTVSS”, the “polyreactivity (PSR sort gate)” value is listed as “low polyreactivity”.

“QVQHVESGGGLVQAGGSLRLSCAASGSTFWFNAMGWYRQATGKVRELVAAITSGSTYYADSVKGRFTISRDNAKNTVYLPMNSLQPEYTAVYYCASTEFTFYYSYDYWAQGTQVTVSS”: the “polyreactivity (PSR sort gate)” value is “low polyreactivity”.

“QVQLVESGGGLVQAGGSLRLSCAASGRTFPIYAMGWYRQAPGKERELVAAITSYRRGTTYYADSVKGRFTISRDNAKNTVYLQMNSLKPEDTAVYYCTARTLRGGEYKYWGQGTPVTVSS”: the “polyreactivity (PSR sort gate)” value is “high polyreactivity”.
